Patent US20090197798A1 (NATIONAL TAIWAN UNIVERSITY, published 2009)
Bridges are numbered along the chain shown (N, C = ends). Where no end group is shown, it is not given here.

T1: Recombinant soluble NRP1 (sNRP1) protein containing His6 and c-Myc domain tags (human, UniProt O14786-2 22-644, limits assumed)
T1 construct: Expressed in NIH-3T3 cells, purified from conditioned medium by ammonium sulfate precipitation and Ni-NTA; also called recombinant human sNRP1; recombinant NRP1; not shown: His6 and c-Myc tags
T1 sequence (looked up): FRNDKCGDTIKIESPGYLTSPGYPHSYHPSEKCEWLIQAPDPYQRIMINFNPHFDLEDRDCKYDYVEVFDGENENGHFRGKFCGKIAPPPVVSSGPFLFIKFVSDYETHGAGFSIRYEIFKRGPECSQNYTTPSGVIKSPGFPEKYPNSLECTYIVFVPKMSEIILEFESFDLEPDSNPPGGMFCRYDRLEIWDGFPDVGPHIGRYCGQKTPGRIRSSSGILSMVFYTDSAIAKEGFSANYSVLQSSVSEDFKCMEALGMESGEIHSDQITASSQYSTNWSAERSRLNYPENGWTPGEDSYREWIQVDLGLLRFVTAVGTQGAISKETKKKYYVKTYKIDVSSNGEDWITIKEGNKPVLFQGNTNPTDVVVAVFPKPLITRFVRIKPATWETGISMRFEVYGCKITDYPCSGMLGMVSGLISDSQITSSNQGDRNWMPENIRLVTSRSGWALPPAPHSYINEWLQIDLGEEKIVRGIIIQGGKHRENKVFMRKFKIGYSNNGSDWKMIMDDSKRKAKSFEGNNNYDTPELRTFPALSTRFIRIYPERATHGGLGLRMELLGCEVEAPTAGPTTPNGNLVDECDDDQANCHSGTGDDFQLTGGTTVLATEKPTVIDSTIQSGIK


Tests used:
[1] = molecular target: T2, VEGFR2 (UniProt P35968 20-764, limits assumed); assay: SPR (Biacore), receptor immobilized on sensor chip
T2 construct: also called Flk-1/KDR
T2 sequence (P35968 20-764 limits assumed): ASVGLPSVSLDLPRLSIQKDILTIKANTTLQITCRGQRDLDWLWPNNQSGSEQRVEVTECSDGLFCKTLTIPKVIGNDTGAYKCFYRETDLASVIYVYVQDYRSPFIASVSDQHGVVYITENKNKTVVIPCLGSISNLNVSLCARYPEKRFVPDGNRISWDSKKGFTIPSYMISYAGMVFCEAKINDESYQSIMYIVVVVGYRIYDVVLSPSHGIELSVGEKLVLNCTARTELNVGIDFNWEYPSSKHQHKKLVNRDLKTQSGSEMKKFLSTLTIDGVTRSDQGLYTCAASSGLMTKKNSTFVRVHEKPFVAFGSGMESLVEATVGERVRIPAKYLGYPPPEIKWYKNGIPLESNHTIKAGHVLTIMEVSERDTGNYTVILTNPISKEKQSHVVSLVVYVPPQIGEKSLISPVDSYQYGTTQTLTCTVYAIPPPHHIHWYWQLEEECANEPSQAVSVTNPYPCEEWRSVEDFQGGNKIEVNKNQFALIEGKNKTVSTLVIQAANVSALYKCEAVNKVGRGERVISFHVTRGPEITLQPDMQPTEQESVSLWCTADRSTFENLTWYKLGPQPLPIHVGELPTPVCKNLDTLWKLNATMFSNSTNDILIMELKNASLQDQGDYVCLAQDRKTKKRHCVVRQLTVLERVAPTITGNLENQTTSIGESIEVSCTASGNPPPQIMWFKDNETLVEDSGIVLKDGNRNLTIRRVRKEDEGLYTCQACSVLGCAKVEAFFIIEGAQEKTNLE

[2] = molecular target: T1, Recombinant soluble NRP1 (sNRP1) …; assay: SPR (Biacore), NRP1 immobilized on CM5 chip, peptide injected, 25 C
Procedure: The binding kinetics of selected peptides with NRP1 were tested using the surface plasmon resonance based measuring system (Biacore AB) at 25° C. Recombinant NRP1 was immobilized on CM5 sensor chips by amine coupling at 400 response units using the amine coupling kit (Biacore) according to the manufacturer's instructions. Binding was detected in resonance units after injecting various concentrations of peptide at a flow rate of 30 μL/min. Sensograms of association and dissociation were recorded and analyzed using BIAevaluation software 3.0 (Biacore AB).
To identify whether any new signature motif can bind and inhibit NRP1-mediated invasion, mammalian cell-expressed NRP1 proteins were used as bait to screen a random cyclic 7-mer peptide library for NRP1-binding peptides. A Ph.D. C7C phage display library containing 10¹¹ random cyclic 7-amino acid peptides was applied for biopanning. After four rounds of screening, 63 clones were isolated. […] A consensus motif, -RRXR-, was found in nine clones by MULTALIN program alignment (Table 3). […] Surface plasmon resonance was used to measure the real-time association and dissociation of the binding of RRXR-containing peptides to NRP1. […] The slightly higher binding affinity of DG1 to NRP1 was due to a more favorable kₐ.

[3] = molecular target: T1, Recombinant soluble NRP1 (sNRP1) …; assay: SPR

Row | Binder | binding result [1] | Kd [2] [µM] | koff [2] [s⁻¹] | kon [2] [M⁻¹ s⁻¹] | Kd [3] [µM]
1 | CRRPRMLTC (disulfide 1-9 (inferred), Chemically synthesized cyclic 9-mer (Digitalgene, Taiwan); Its core matches phage clone 4-1) [cyclic peptide DG1 (CRRPRMLTC)] | no binding | 1.4 | 0.00172 | 1230 | 
2 | Human VEGF165 (ligand, UniProt P15692-4 27-191, looked up, Bought from PeproTech; also called hVEGF) APMAEGGGQNHHEVVKFMDVYQRSYCHPIETLVDIFQEYPDEIEYIFKPSCVPLMRCGGCCNDEGLECVPTEESNITMQIMRIKPHQGQHIGEMSFLQHNKCECRPKKDRARQENPCGPCSERRKHLFVQDPQTCKCSCKNTDSRCKARQLELNERTCRCDKPRR |  |  |  |  | 0.125
3 | CRSRRIRLC (disulfide 1-9 (inferred), Chemically synthesized cyclic 9-mer (Digitalgene, Taiwan); Its core matches phage clone 4-5) [cyclic peptide DG2 (CRSRRIRLC)] | no binding | 5.37 | 0.000663 | 123 | 
